Measurements from article PMC3240692 (The FEBS journal, 2011).

Legend:
BcUGlcAE = target: T1, BcUGlcAE (Bacillus cytotoxicus, UniProt A7GQD3); experiment: HPLC product assay, inhibition; type: biochemical; details: 1 mM UDP-GlcA, 1 mM NAD+, 50 mM phosphate pH 7.6, 37 °C
T1 sequence (A7GQD3 1-314): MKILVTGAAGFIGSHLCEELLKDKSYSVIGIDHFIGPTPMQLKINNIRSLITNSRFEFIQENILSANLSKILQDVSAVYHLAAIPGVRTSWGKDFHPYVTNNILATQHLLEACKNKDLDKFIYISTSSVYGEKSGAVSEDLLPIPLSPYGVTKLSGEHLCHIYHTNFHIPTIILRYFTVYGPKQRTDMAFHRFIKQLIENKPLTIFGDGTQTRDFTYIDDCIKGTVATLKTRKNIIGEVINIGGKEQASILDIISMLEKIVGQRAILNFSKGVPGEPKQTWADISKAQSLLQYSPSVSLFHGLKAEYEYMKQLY

HPLC [1] = substrate: O=C(O)[C@H]1O[C@H](OP(=O)(O)OP(=O)(O)OC[C@H]2O[C@@H](n3ccc(=O)[nH]c3=O)[C@H](O)[C@@H]2O)[C@H](O)[C@@H](O)[C@@H]1O; experiment: HPLC; type: biochemical, Bacillus cytotoxicus; details: 1 mM NAD+, 50 mM sodium phosphate pH 7.6, 37 °C
HPLC [2] = substrate: Cc1cn([C@H]2C[C@H](O)[C@@H](COP(=O)(O)OP(=O)(O)O[C@H]3O[C@H](C(=O)O)[C@@H](O)[C@H](O)[C@H]3O)O2)c(=O)[nH]c1=O; experiment: HPLC; type: biochemical, Bacillus cytotoxicus; details: 1 mM NAD+, 50 mM sodium phosphate pH 7.6, 37 °C

Molecule: O=c1ccn([C@@H]2O[C@H](COP(=O)(O)OP(=O)(O)O[C@H]3OC[C@@H](O)[C@H](O)[C@H]3O)[C@@H](O)[C@H]2O)c(=O)[nH]1 [UDP-Xyl]
- inhibition (BcUGlcAE): the epimerase was highly inhibited by UDP and to a lesser extent by UDP-Xyl

Molecule: O=c1ccn([C@@H]2O[C@H](COP(=O)(O)OP(=O)(O)O)[C@@H](O)[C@H]2O)c(=O)[nH]1 [UDP]
- inhibition (BcUGlcAE): the epimerase was highly inhibited by UDP and to a lesser extent by UDP-Xyl

B1: BcUGlcAE (Bacillus cytotoxicus NVH 391-98) (protein)
chain: T1 sequence (A7GQD3 1-314)
- Km (HPLC [1]): 120 ± 10 µM
- kcat (HPLC [1]): 3.2 ± 0.1 s⁻¹
- kcat/Km (HPLC [1]): 26000 ± 1400 M⁻¹ s⁻¹
- Km (HPLC [2]): 180 ± 10 µM
- kcat (HPLC [2]): 2.1 ± 0.1 s⁻¹
- kcat/Km (HPLC [2]): 12000 ± 400 M⁻¹ s⁻¹
